Our source for the stoichiometry N values is paper PMC8199477.

The test concerns the target urate oxidase from Deinococcus radiodurans (DrUox) (Deinococcus radiodurans R1). Nature of the test: SEC; Superdex 200 (10/300) GL, 20 mM Tris-HCl pH 8.0, 100 mM NaCl, 0.5 mL/min; size by interpolation against protein markers. Background: In gel filtration, larger molecules generally elute earlier.

As a reminder, the stoichiometry N is the number of molecules, sites or subunits per partner or assembly.

Regarding “urate oxidase from Deinococcus radiodurans (DrUox) (enzyme)”, the stoichiometry N was determined as 4.
